This is an account of results in article PMC7307101.

Assay [1] has as its target trimeric influenza virus polymerase of A/England/195/2009(pH1N1) (PB2, PB1-Gluc1, PA). In words: split-luciferase assay. Conditions: parent: est. 1.5; read off a plot.
Assay [2] deals with trimeric influenza virus polymerase of A/turkey/England/50-92/1991(H5N1) (PB2, PB1-Gluc1, PA). In words: split-luciferase assay. The note with it: parent: est. 30; read off a plot.

Consider “human ANP32A-Gluc2 (from UniProt P39687) I106V; P156S”, for which the response in assay [1] was determined as 3.5 NLR; in assay [2] it was 55 NLR.
